Experimental data as given in IntAct's records for PubMed 22252131.

B1: Cadherin-1 (Homo sapiens), P12830 (parent)
chain: MGPWSRSLSALLLLLQVSSWLCQEPEPCHPGFDAESYTFTVPRRHLERGRVLGRVNFEDCTGRQRTAYFSLDTRFKVGTDGVITVKRPLRFHNPQIHFLVYAWDSTYRKFSTKVTLNTVGHHHRPPPHQASVSGIQAELLTFPNSSPGLRRQKRDWVIPPISCPENEKGPFPKNLVQIKSNKDKEGKVFYSITGQGADTPPVGVFIIERETGWLKVTEPLDRERIATYTLFSHAVSSNGNAVEDPMEILITVTDQNDNKPEFTQEVFKGSVMEGALPGTSVMEVTATDADDDVNTYNAAIAYTILSQDPELPDKNMFTINRNTGVISVVTTGLDRESFPTYTLVVQAADLQGEGLSTTATAVITVTDTNDNPPIFNPTTYKGQVPENEANVVITTLKVTDADAPNTPAWEAVYTILNDDGGQFVVTTNPVNNDGILKTAKGLDFEAKQQYILHVAVTNVVPFEVSLTTSTATVTVDVLDVNEAPIFVPPEKRVEVSEDFGVGQEITSYTAQEPDTFMEQKITYRIWRDTANWLEINPDTGAISTRAELDREDFEHVKNSTYTALIIATDNGSPVATGTGTLLLILSDVNDNAPIPEPRTIFFCERNPKPQVINIIDADLPPNTSPFTAELTHGASANWTIQYNDPTQESIILKPKMALEVGDYKINLKLMDNQNKDQVTTLEVSVCDCEGAAGVCRKAQPVEAGLQIPAILGILGGILALLILILLLLLFLRRRAVVKEPLLPPEDDTRDNVYYYDEEGGGEEDQDFDLSQLHRGLDARPEVTRNDVAPTLMSVPRYLPRPANPDEIGNFIDENLKAADTDPTAPPYDSLLVFDYEGSGSEAASLSSLNSSESDKDQDYDYLNEWGNRFKKLADMYGGGEDD
B2: E3 ubiquitin-protein ligase Hakai (Mus musculus), Q9JIY2 (parent)
chain: MDHTDNELQGTNSSGSLGGLDVRRRIPIKLISKQASKVKPAPRTQRTVSRMPAKAPQGDEEGFDYNEEQRYDCKGGELFGNQRRFPGHLFWDFKINILGEKDDTPVHFCDKCGLPIKVYGRMIPCKHVFCYDCAILHEKKGDKMCPGCSDPVQRIEQCTRGSLFMCSIVQGCKRTYLSQRDLQAHINHRHMRAGKPVTRASLENVHPPIAPPPTDIPDRFIMPPDKHHMSHIPPKQHIMMPPPPLQHVPHEHYNQPHEDIRAPPAELSMAPPPPRSVSQETFRISTRKHSNLITVPIQDDSSSGAREPPPPAPAPAHHHPEYQGQPVVSHPHHIMPPQQHYAPPPPPPPPISHPMPHPPQAAGTPHLVYSQAPPPPMTSAPPPITPPPGHIIAQMPPYMNHPPPGPPPPQHGGPPVTAPPPHHYNPNSLPQFTEDQGTLSPPFTQPGGMSPGIWPAPRGPPPPPRMQGPPSQTPLPGPHHPDQTRYRPYYQ

Variants of: B1
Details: with hakai_mouse Cbll1, Q9JIY2

| Variant | effect of a mutation on the interaction |
| --- | --- |
| Y753F | disrupting interaction |

Variants of: B1
Details: with hakai_mouse Cbll1, Q9JIY2
Remark: another data set of the same source

| Variant | effect of a mutation on the interaction |
| --- | --- |
| D750A | disrupting interaction |

Variants of: B1
Details: with hakai_mouse Cbll1, Q9JIY2
Remark: another data set of the same source

| Variant | effect of a mutation on the interaction |
| --- | --- |
| Y754F | disrupting interaction |

Variants of: B1
Details: with hakai_mouse Cbll1, Q9JIY2
Remark: another data set of the same source

| Variant | effect of a mutation on the interaction |
| --- | --- |
| V752A | disrupting interaction |

Variants of: B1
Details: with hakai_mouse Cbll1, Q9JIY2
Remark: another data set of the same source

| Variant | effect of a mutation on the interaction |
| --- | --- |
| D756A | disrupting interaction |

Variants of: B1
Details: with hakai_mouse Cbll1, Q9JIY2
Remark: another data set of the same source

| Variant | effect of a mutation on the interaction |
| --- | --- |
| E757A | disrupting interaction |

Variants of: B1
Details: with hakai_mouse Cbll1, Q9JIY2
Remark: another data set of the same source

| Variant | effect of a mutation on the interaction |
| --- | --- |
| Y755F | disrupting interaction |

Variants of: B2
Details: with cadh1_human CDH1, P12830

| Variant | effect of a mutation on the interaction |
| --- | --- |
| H190A | disrupting interaction |

Variants of: B2
Details: with src8_human CTTN

| Variant | effect of a mutation on the interaction |
| --- | --- |
| H190A | disrupting interaction |

Variants of: B2
Details: with cadh1_human CDH1, P12830
Remark: another data set of the same source

| Variant | effect of a mutation on the interaction |
| --- | --- |
| Y176A | disrupting interaction |

Variants of: B2
Details: with src8_human CTTN
Remark: another data set of the same source

| Variant | effect of a mutation on the interaction |
| --- | --- |
| Y176A | disrupting interaction |

Variants of: B2
Details: with cadh1_human CDH1, P12830
Remark: another data set of the same source

| Variant | effect of a mutation on the interaction |
| --- | --- |
| H127A | disrupting interaction |

Variants of: B2
Details: with src8_human CTTN
Remark: another data set of the same source

| Variant | effect of a mutation on the interaction |
| --- | --- |
| H127A | disrupting interaction |

Variants of: B2
Details: with cadh1_human CDH1, P12830
Remark: another data set of the same source

| Variant | effect of a mutation on the interaction |
| --- | --- |
| R189A | disrupting interaction |

Variants of: B2
Details: with src8_human CTTN
Remark: another data set of the same source

| Variant | effect of a mutation on the interaction |
| --- | --- |
| R189A | disrupting interaction |
